# Where a chain is given by its changes, count along the chain named.
# B1: PDL1-370 (antibody, V domains shown)
# VH: EVQLQESGPGLAKPSQTLSLTCSVTGYSITSDYWNWIRKFPGNKLEYMGYISYTGSTYYNPSLKSRISIARDTSRNQYYLQLNSVTTEDSATYYCARAGGWLLPFAVWGTGTTVTVSS
# VL: DIVITQSPSSLAVSVGEKVTMSCKSSQSLLYSSNQQNSLAWYQQKPGQSPILLIYWASTRESGVPDRFTGGGSGTDFTLTISSVRAEDLAVYYCQQYYNYPWTFGGGTKLEIK
# B2: PDL1-413 (antibody, V domains shown)
# VH: B1 VH with N83K, S90T
# VL: B1 VL with I4M, G71S, N99S
# B3: PDL1-130 (antibody, V domains shown)
# VH: EVQLQESGPGLAKPSQTLSLTCSVTGYSITSDYWNWIRKFPGNKLEYVGYISYTGSTYYNPSLRSRISITRDTSKNQYYLQLNSVTAEDTATYYCARCPGWLNAMDYWGQGTTVTVSS
# VL: DILMTQSPSSLAVSVGEKVTLSCKSSQSLLYSNNQKNSLAWYQQKPGQSPKLLIYWASTGESGVPDRFTGSGSGTDFTLTISSVKAEDLAVYYCQQYYGYPFTFGAGTKLEIK
# B4: PDL1-373 (antibody, V domains shown)
# VH: EVQLQESGGGLVKPGGSLKLSCAASGFTFSDYGMHWVRQAPEKGLEWVAYISSGSSTIYYADTVKGRFTISRDNAKNTLFLQMTSLRSEDTAMYYCARRNFGSSYDYWGQGTTVTVSS
# VL: EIVMTQSHKFMSTSVGDRVSITCKASQDVDTPVAWYQQKPGQSPRLLIYWASIRHTGVPDRFTGSGSGTDFTLTISNVQSEDLADYFCQQYSSYPLTFGSGTKLEIK
# B5: PDL1-50 (antibody, V domains shown)
# VH: EVQLQESGGDLVKPGGSLKLSCAASGFTFNTYGMSWVRQTPDKRLEWVATLSSGGSYTYYSESVKGRFTISRDNAKNTLYLQMTSLKSEDTAIYYCARPTADWHLDVWGTGTTVTVSS
# VL: DIQMTQSPSSLSASLGGKVTITCKASQDINKYIAWYQHKPGKGPRLLIHYTSTLQPGIPSRFSGSGSGRDYSFSISNLEPEDIATYYCLQHDNLLFTFGSGTKLEIK
# B6: PDL1-34 (antibody, V domains shown)
# VH: B5 VH with T84N
# VL: B5 VL with Q3L, K24N, R45S
# B7: PDL1-90 (antibody, V domains shown)
# VH: B5 VH with A23T, N30S, L51V, S61P, E62D, T84S
# VL: B5 VL with S7T, K31R, R45S
# B8: PDL1-794 (antibody, V domains shown)
# VH: EVQLQESGPSLVKPSQTLSLTCSVTGDSITSGYWNWIRKFPGNKLEYMGYISYSGSTYYNPFLKSRISITRDTSKNQYYLQLNSVTTEDTATYYCAKMGDWLAWFAYWGQGTTVTVSS
# VL: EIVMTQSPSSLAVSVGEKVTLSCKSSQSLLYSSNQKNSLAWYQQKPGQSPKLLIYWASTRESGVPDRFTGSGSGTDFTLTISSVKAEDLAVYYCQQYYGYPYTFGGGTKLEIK
# B9: PDL1-156 (antibody, V domains shown)
# VH: EVQLQESGPELVKPGASVKISCKASGYTFTDYYMNWVRQSHGKSLEWIGDINPNNGDTSYNQKFKGKATLTVDKSSSTAYMDLRSLTSEDSAVYYCASSVMDYWGQGTTVTVSS
# VL: DIVLTQSPALMSASPGEKVTMTCSASSSVNYVYWYQQKPRSSPKPWIYLTFNLASGVPARFSGSGSGTSYSLTISSMEAEDAATYYCQQWSSNPLTFGAGTKLEIK
# B10: 156-11H (antibody, V domains shown)
# VH: QVQLVQSGPELKKPGASVKISCKASGYTFTDYYMNWVRQAPGQSLEWIGDIWPNNGDTSYNQKFKGRVTLTRDTSTSTVYMELRSLRSEDTAVYYCARSVMDYWGQGTLVTVSS
# VL: EIVLTQSPALLSLSPGERVTLSCSASSSVNYVYWYQQKPGQAPRPLIYLTFNLASGIPARFSGSGSGTDFTLTISSLEPEDFAVYYCQQWSVNPLTFGGGTKVEIK
# B11: 156-7H (antibody, V domains shown)
# VH: B10 VH with Y103T
# VL: B10 VL
# B12: 156-1H (antibody, V domains shown)
# VH: B10 VH with S59W
# VL: B10 VL
# B13: 156-10H (antibody, V domains shown)
# VH: B10 VH with D102S, Y103D
# VL: B10 VL with V92S
# Biological target: T1, cynomolgus monkey PD-L1-His protein (Sino Biological, Cat. 90251-CO8H) (cynomolgus monkey, UniProt G7PSE7 19-238)
# T1 construct: Bought protein; also called cynomolgus monkey PD-L1 recombinant protein
# T1 sequence (G7PSE7 entry or part of it limits assumed): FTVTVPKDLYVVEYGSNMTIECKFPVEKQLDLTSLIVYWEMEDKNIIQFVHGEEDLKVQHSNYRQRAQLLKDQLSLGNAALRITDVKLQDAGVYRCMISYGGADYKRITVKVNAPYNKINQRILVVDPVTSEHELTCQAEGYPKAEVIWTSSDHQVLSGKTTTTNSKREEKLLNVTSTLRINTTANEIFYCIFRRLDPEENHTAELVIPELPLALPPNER
# Test: SPR, Biacore T200, antibody captured, PD-L1-His injected, 1:1 model, 25 C
# Experimental: (§1) Biacore T200 (GE Healthcare) was used to determine binding affinity of the PD-L1 antibody to the human and cynomolgus monkey PD-L1-His proteins. Anti-human IgG Fc (Genway, Cat. GWB-20A705) was immobilized on CM5 chip (GE Healthcare, Cat. BR-1005-30) at 25° C. Anti-human Fc (Genway, Cat. GWB-20A705) was diluted to […] with Acetate pH5.0 (GE Healthcare, BR-1003-51). The Amine method in the Immobilization method was used to immobilize. Alternatively, a commercially available Protein A (GE Healthcare, Cat. 29127556) chip was used for detection. […] In each cycle, the antibody to be tested was captured on the fixed CM5 chip, then injected with recombinant human PD-L1-His (Novoprotein, Cat. 315) and cynomolgus monkey PD-L1-His protein (Sino Biological, Cat. 90251-CO8H), and finally regenerated with Glycine pH1.5. The mobile phase was HBS-EP+Buffer (GE Healthcare, Cat. BR-1006-69), the flow rate was 30 μL/min, and the binding time was 300 seconds. The regeneration flow rate was 30 μL/min and the time was 30 seconds. Using Biacore T200 evaluation software (version 3.0), a 1:1 binding model was used to analyze the experimental data, fit the equilibrium dissociation constant KD of the antibody and antigen, and determine the binding rate constant Ka and dissociation rate constant Kd.
row,Kd,Binder
1,2.18 nM,B1
2,2.76 nM,B2
3,1.95 nM,B3
4,3.64 nM,B4
5,33.1 nM,B5
6,5.43 nM,B6
7,62.5 nM,B7
8,0.883 nM,B8
9,0.375 nM,B9

# Biological target: T2, recombinant human PD-L1-His (Novoprotein, Cat. 315) (human, UniProt Q9NZQ7 19-239)
# T2 construct: Bought protein; also called human PD-L1 recombinant protein; human PDL1 protein; not shown: His tag
# T2 sequence (Q9NZQ7 19-239 limits assumed): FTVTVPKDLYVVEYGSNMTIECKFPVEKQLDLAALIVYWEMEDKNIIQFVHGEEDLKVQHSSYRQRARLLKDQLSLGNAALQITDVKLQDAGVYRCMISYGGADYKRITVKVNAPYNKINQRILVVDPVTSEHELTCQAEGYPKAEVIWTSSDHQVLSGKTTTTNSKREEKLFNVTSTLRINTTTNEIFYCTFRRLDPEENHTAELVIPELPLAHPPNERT
# Test: as above
# Experimental: as §1
row,Kd,Binder
1,2.42 nM,B1
2,2.09 nM,B2
3,2.18 nM,B3
4,2.45 nM,B4
5,0.699 nM,B5
6,0.458 nM,B6
7,0.87 nM,B7
8,1.25 nM,B8
9,0.291 nM,B9

# Biological target: T3, recombinant human PD-L1 protein (Sino Biological, Cat. 10084-H05H) (human, UniProt Q9NZQ7 19-239)
# T3 construct: also called PD-L1-mFc; human PD-L1 protein fused with mouse Fc
# T3 sequence (Q9NZQ7 19-239 limits assumed): as above
# Test: competitive ELISA: coated human PD-L1 protein, antibody titrated together with human PD-1-His, bound PD-1-His detected with HRP anti-His
# Experimental: (§2) The recombinant human PD-L1 protein (Sino Biological, Cat. 10084-H05H) was diluted with carbonate buffer and added to a 96-well plate at a final concentration of […]. […] Then HRP-labeled anti-His tag antibody (MBL, Cat. D291-7) was added, and color development was performed with TMB. After termination with 1M sulfuric acid, OD values (dual wavelength 450 nm-630 nm) were read. The competitive binding curve of the test antibody can be drawn by matching the antibody concentration with the OD value to calculate the IC50 value.
row,IC50,Binder
1,0.156 µg/mL,B1
2,0.184 µg/mL,B2
3,0.225 µg/mL,B3
4,0.12 µg/mL,B4
5,0.294 µg/mL,B5
6,0.276 µg/mL,B6
7,0.259 µg/mL,B7
8,0.191 µg/mL,B8

# Biological target: T4, PD-L1 on the surface of CHO-PD-L1 cells (UniProt Q9NZQ7 19-290, limits assumed)
# T4 construct: whole, on cells; also called CHO-PD-L1 cells (Nanjing Yongshan Biotechnology); CHO cell line (GenScript, Cat. M00613) stably transfected with PD-L1
# T4 sequence (Q9NZQ7 19-290 limits assumed): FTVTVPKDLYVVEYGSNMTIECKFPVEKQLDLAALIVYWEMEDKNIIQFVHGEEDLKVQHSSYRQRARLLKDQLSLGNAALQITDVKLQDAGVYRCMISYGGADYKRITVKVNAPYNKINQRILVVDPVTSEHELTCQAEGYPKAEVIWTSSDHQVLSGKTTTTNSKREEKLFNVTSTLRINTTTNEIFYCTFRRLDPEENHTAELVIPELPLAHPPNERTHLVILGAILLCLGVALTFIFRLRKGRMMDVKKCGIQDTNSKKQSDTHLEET
# Test: flow cytometry on CHO-PD-L1 cells, anti-human IgG PE
# Experimental: (§3) A gradient concentration of antibodies to be detected (final concentration of antibody: 10000 ng/ml-0.1 ng/ml, 10-foldserial dilution) were incubated with CHO-PD-L1 cells (Nanjing Yongshan Biotechnology Co., Ltd., 10⁵ cells/well) with high expression of PD-L1 on the cell surface at 4° C. ° C. for 30min. After incubation, 1:250 diluted anti-human IgG PE fluorescent antibody (eBioscience, Cat. 12-4998-8) was added, and incubated at 4° C. for 30 min. The fluorescent antibody specifically bound to the Fc fragment of the antibody to be detected. The fluorescent intensity of PE was detected by FACS, and the ability of the antibody to be detected to bind to PD-L1 protein highly expressed on the cell surface was analyzed. […] MFI fold=MFI value of the experimental group/MFI value of the control group without drugs.
row,EC50,Binder
1,0.05 µg/mL,B10
2,0.0784 µg/mL,B11
3,0.0494 µg/mL,B12
4,0.0635 µg/mL,B13

# Biological target: T4, PD-L1 on the surface of CHO-PD-L1 cells
# Test: flow cytometry on CHO-PD-L1 cells, anti-human IgG PE, MFI fold, ng/ml is the unit of the concentration axis
# Experimental: as §3
row,EC50,Binder
1,0.0646 µg/mL,B3
2,0.0633 µg/mL,B4
3,0.113 µg/mL,B5
4,0.113 µg/mL,B6
5,0.119 µg/mL,B7
6,0.0235 µg/mL,B9

# Biological target: T2, recombinant human PD-L1-His …
# Test: SPR, Biacore T200, antibody captured, human PD-L1-His injected, 1:1 model, 25 C
# Experimental: as §1
Kd,koff,kon,Binder
0.336 nM,0.000193 s⁻¹,574000 M⁻¹ s⁻¹,B10
0.348 nM,0.00018 s⁻¹,518000 M⁻¹ s⁻¹,B11
0.458 nM,0.000227 s⁻¹,494000 M⁻¹ s⁻¹,B12
0.224 nM,0.000133 s⁻¹,595000 M⁻¹ s⁻¹,B13
0.291 nM,0.000233 s⁻¹,802000 M⁻¹ s⁻¹,B9

# Biological target: T4, PD-L1 on the surface of CHO-PD-L1 cells
# Test: cell-based or functional assay
row,"EC50 of NFAT luminescence reporter gene (RLU), Jurkat-PD-1 / CHO-PD-L1 co-culture",Binder
1,0.282 µg/mL,B10
2,0.314 µg/mL,B11
3,0.342 µg/mL,B12
4,0.357 µg/mL,B13

# Biological target: T3, recombinant human PD-L1 protein (Sino …)
# Test: competitive ELISA: PD-L1 coated, antibody titrated against PD-1-His, anti-His-HRP
# Experimental: as §2
row,IC50,Binder
1,0.207 µg/mL,B10
2,0.231 µg/mL,B11
3,0.197 µg/mL,B12
4,0.25 µg/mL,B13
5,0.221 µg/mL,B9

# Biological target: T3, recombinant human PD-L1 protein (Sino …)
# Test: competitive ELISA: coated human PD-L1 protein, antibody titrated together with human PD-1-His, bound PD-1-His detected with HRP anti-His; panel A experiment (the text prints only the panel B value)
# Experimental: as §2
row,IC50,Binder
1,0.14 µg/mL,B9

# Reference: patent publication US20230002492A1 (SIMCERE SHANGHAI PHARMACEUTICAL, published 2023)
